The target of experiment [1] is HA ectodomain of A/Beijing/262/1995 (H1N1), recombinant, with C-terminal thrombin site, foldon and 6-His-tag (Influenza A virus A/Beijing/262/1995 …, strain). The experiment is described as follows: SPR. To be noted: both partners purified.
Experiment [2] concerns the target T1, HA trimer of A/Beijing/262/1995 (H1N1), thrombin- and trypsin-treated, for the immune complex (Influenza A virus A/Beijing/262/1995 …).
T1 construct: copies: 3 + 3
The experiment in a line: cryo-EM structure; 12H5 Fab with thrombin- and trypsin-treated BJ/1995 HA trimer. To be noted: both partners purified.

Experiment [3] deals with HA ectodomain of A/Beijing/262/1995 (H1N1), recombinant (Influenza A virus A/Beijing/262/1995 …, strain). The experiment is described as follows: SPR. To be noted: both partners purified.
The target in experiment [4] is HA of A/New Caledonia/20/1999 (H1N1) virus, in infected MDCK cells (Influenza A virus A/New …, UniProt Q6WG00, strain). The experiment is described as follows: immunostaining of cells or tissue. The settings on record: one partner purified.
The target in experiment [5] is HA ectodomain of A/New Caledonia/20/1999 (H1N1), recombinant (Influenza A virus A/New …, UniProt Q6WG00, strain). The experiment in a line: ELISA. To be noted: both partners purified. (An ELISA detects its analyte on a solid surface through an enzyme-linked reagent.)
Experiment [6] deals with HA ectodomain of A/Beijing/262/1995 (H1N1) (Influenza A virus A/Beijing/262/1995 …, strain). The experiment is described as follows: SPR. The settings on record: both partners purified.
The target in experiment [7] is HA of B/Florida/4/2006 (Yamagata) (Influenza B virus B/Florida/4/2006 …, UniProt E1TVD5, strain). The experiment in a line: ELISA. The settings on record: both partners purified.

The values that follow come from paper PMC9439264 (Nature Communications, 2022).

The term koff denotes the first-order rate constant of dissociation. One may read the kon as a measure of how fast the partners come together. Broadly, the stoichiometry N is the number of molecules, sites or subunits per partner or assembly. One may read the Kd as a measure of binding affinity in units of concentration.

Several values for one entry are separate records, joined by “and”; a condition that tells them apart may be missing. Equal entries are not always repeated.

B1: C12H5, human-mouse chimeric version of mAb 12H5 (variable region of mouse 12H5, human IgG1 constant region) (antibody, V domains shown)
VH: QIQLVQSGPELKKPGETVRISCKASGYTFTKNGMNWVQQAPGKGLKWVGWINTYTGEPSYADDFKGRFAFSLETSASTAYLQINNLKNEDMAAYFCARMVRDAMDFWGQGTSVTVSS
VL: DIVLTQSPASLAVSLGQRATISCKASQSVDFDGYNYLNWYQQKPGQPPKLLIYAASNLESGIPARFSGSGSGTDFTLNIHPVEEEDAATYFCQQSNEDPYTFGGGTKLEIK
notes: also called MAb C12H5; C12H5 IgG; copies: 2 + 2
Take B1: in experiment [1], the koff amounted to 0.00089 s⁻¹ and the kon turned out to be 109000 M⁻¹ s⁻¹.

B2: 12H5 Fab (mouse antibody) (Fab, V domains shown)
VH: QIQLVQSGPELKKPGETVRISCKASGYTFTKNGMNWVQQAPGKGLKWVGWINTYTGEPSYADDFKGRFAFSLETSASTAYLQINNLKNEDMAAYFCARMVRDAMDFWGQGTSVTVSS
VL: DIVLTQSPASLAVSLGQRATISCKASQSVDFDGYNYLNWYQQKPGQPPKLLIYAASNLESGIPARFSGSGSGTDFTLNIHPVEEEDAATYFCQQSNEDPYTFGGGTKLEIK
notes: source: papain digestion of mAb 12H5 (mouse ascites, protein A), purified with DEAE-5PW
With B2, in experiment [2], the “stoichiometry N” value was 3 Fab per HA trimer.

B3: C12H5 (human-mouse chimeric version of mAb 12H5) (antibody, V domains shown)
VH: QIQLVQSGPELKKPGETVRISCKASGYTFTKNGMNWVQQAPGKGLKWVGWINTYTGEPSYADDFKGRFAFSLETSASTAYLQINNLKNEDMAAYFCARMVRDAMDFWGQGTSVTVSS
VL: DIVLTQSPASLAVSLGQRATISCKASQSVDFDGYNYLNWYQQKPGQPPKLLIYAASNLESGIPARFSGSGSGTDFTLNIHPVEEEDAATYFCQQSNEDPYTFGGGTKLEIK
notes: also called chimeric 12H5 monoclonal antibody; MAb C12H5
In the case of B3, the Kd in experiment [3] worked out at 8.1 nM. For the same molecule, the binding result in experiment [4] and in experiment [5] was “binds” each time.

B4: C12H5 (chimeric 12H5 monoclonal antibody: variable region of mouse 12H5, human IgG1 constant region) (antibody, V domains shown)
VH: QIQLVQSGPELKKPGETVRISCKASGYTFTKNGMNWVQQAPGKGLKWVGWINTYTGEPSYADDFKGRFAFSLETSASTAYLQINNLKNEDMAAYFCARMVRDAMDFWGQGTSVTVSS
VL: DIVLTQSPASLAVSLGQRATISCKASQSVDFDGYNYLNWYQQKPGQPPKLLIYAASNLESGIPARFSGSGSGTDFTLNIHPVEEEDAATYFCQQSNEDPYTFGGGTKLEIK
notes: also called MAb C12H5; source: CHO cells, transient transfection, purified from culture media (MAbselect Sure)
Turning to B4, in experiment [6], binding was characterised by a dissociation constant (Kd) of 8.85 nM; the koff was 0.0007 s⁻¹ and 0.00089 s⁻¹ and 0.00108 s⁻¹; the kon was 109000 M⁻¹ s⁻¹ and 122000 M⁻¹ s⁻¹ and 95300 M⁻¹ s⁻¹. Besides, the binding result in experiment [7] is on record as “no binding”.

B5: CH65, chimeric version (antibody, V domains shown)
VH: EVQLVQSGAEVKKPGASVKVSCKASGYTFTDYHINWVRQAPGQGLEWMGWIHPNSGDTNYAQKFQGWVTMTRDTAISTAYMEVNGLKSDDTAVYYCARGGLEPRSVDYYYYGMDVWGQGTTVTVSS
VL: SVLTQPPSVSVAPGQTARITCGGNDIGRKSVHWNQQKPGQAPVLVVCYDSDRPSGIPERFSGSNSGNTATLTISRVEAGDEADYYCQVWDSSSDHVIFGGGTKLTVL
As for B5, in experiment [5], the binding result is reported as “binds”.
